The values below come from patent US20240360474 (Scribe Therapeutics Inc., published 2024).

Changes are numbered by the printed parent chain.

The target in series [1] is T1, CasX variant 438 (synthetic construct).
T1 chain: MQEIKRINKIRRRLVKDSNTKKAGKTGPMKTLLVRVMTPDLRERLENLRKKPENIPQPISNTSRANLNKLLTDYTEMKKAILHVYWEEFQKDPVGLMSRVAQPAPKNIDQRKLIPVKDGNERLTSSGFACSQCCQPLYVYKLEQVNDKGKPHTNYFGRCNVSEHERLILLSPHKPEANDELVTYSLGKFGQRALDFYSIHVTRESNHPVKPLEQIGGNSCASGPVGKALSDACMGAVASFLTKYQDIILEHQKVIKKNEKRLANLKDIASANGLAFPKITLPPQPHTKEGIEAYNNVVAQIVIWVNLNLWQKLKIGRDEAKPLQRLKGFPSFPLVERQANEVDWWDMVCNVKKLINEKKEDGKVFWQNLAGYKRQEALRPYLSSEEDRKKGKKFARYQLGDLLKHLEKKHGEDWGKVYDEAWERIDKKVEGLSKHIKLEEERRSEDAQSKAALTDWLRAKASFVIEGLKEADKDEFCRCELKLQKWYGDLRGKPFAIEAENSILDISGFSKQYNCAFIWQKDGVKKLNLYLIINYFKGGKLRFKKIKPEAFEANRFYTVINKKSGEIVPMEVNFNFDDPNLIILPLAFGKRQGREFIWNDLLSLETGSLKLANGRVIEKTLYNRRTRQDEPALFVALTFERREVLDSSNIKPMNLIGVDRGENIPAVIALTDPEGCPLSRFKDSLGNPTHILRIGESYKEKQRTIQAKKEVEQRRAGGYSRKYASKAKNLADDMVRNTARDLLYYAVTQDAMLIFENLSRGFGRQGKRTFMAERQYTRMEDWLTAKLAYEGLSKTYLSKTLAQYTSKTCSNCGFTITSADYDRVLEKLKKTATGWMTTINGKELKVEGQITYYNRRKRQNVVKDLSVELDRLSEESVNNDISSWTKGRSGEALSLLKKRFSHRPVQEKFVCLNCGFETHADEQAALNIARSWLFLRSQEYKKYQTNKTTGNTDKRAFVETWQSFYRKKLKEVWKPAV
The series is described as follows: cleavage_in_vitro.

Series [2] concerns the target T2, CasX variant 119 (synthetic construct).
T2 chain: T1 chain with L399F, K404L, V658I, R856Y
Put plainly: cleavage_in_vitro.

B1: gRNA scaffold 174 + spacer 7.37 ; 7.37 TTC PAM target (ssRNA ; dsDNA)
RNA: ACUGGCGCUUUUAUCUGAUUACUUUGAGAGCCAUCACCAGCGACUAUGUCGUAGUGGGUAAAGCUCCCUCUUCGGAGGGAGCAUCAAAGGGGCCGAGAUGUCUCGCUCC
DNA 1: TGAAGCTGACAGCATTCGGGCCGAGATGTCTCGCTCCGTGGCCTTAGCTGTGCTCGCGCT
DNA 2: AGCGCGAGCACAGCTAAGGCCACGGAGCGAGACATCTCGGCCCGAATGCTGTCAGCTTCA
In the case of B1, the activity came out at 4.94 min⁻¹ in series [1] and 8.33 min⁻¹ in series [2].
